Km and kcat data for two substances are collected here from publication PMC5938751.

For data set [1], the system named is N[C@@H](CCC(=O)NP(=O)(O)O)C(=O)O. The data set is described as follows: purified protein. The settings on record: fixed 5.0 mM MgCTP, pH 8.0, 25 °C.
Data set [2] concerns Nc1ccn([C@@H]2O[C@H](COP(=O)(O)OP(=O)(O)NC(=O)CC[C@H](N)C(=O)O)[C@@H](O)[C@H]2O)c(=O)n1. The data set is described as follows: purified protein. The settings on record: pH 8.0, 25 °C.

With “Cj1416 (Campylobacter jejuni subsp. jejuni NCTC 11168 = ATCC 700819)”, in data set [1], the Km – broadly, the substrate concentration at which the rate is half of its maximum – came out at 120 ± 30 µM; the kcat – broadly, the number of substrate molecules converted per active site and unit of time at saturation – is 0.95 ± 0.1 s⁻¹.

As for “Cj1417 (Campylobacter jejuni subsp. jejuni NCTC 11168 = ATCC 700819)”, in data set [2], the Km worked out at 28 ± 3 µM and the kcat turned out to be 0.567 ± 0.02 s⁻¹.
